In the supplement of paper PMC10126150:
± gives the standard deviation of the averaged measurements.

Tested on: ATP
Experiment: switch fluorescence ratio, 500 uM ATP over buffer (Cy3 cluster intensity, sum of 5 cycles each) (fold (ratio)); higher = stronger signal-on switching upon ATP binding; sequences stand for … in TCGTCGGCAGCGTCAGATGTGTATAAGAGACAGTTTTTTTTTTTTTTTTTTTTTTTTT…TC
Conditions: aptamer strand: ATP DNA aptamer (quencher-CACCTGGGGGAGTATTGCGGAGGAAGG + anchor), 100 nM annealed; ATP concentration: 500 uM
How it was run: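 The fluorescence ratio divides summed target-cycle Cy3 intensity by summed buffer-cycle Cy3 intensity for each cluster and is averaged per switch-domain sequence. Cy3-labelled switching-strand clusters on a modified Illumina MiSeq flow-cell were annealed to 100 nM quencher-labelled ATP aptamer, then imaged in selection buffer and again after 15 min with 500 uM ATP at 22 °C. Five such cycles were run, with NaOH stripping and re-annealing between them, and clusters outside 100-1000 RFU were excluded.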
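Note: ATP exposure 15 min at 22 °C before imaging.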

Point of comparison: GGTTAAGCCT, switch fluorescence ratio 1.05 ± 0.043. Against it:
- GGTCCATGGG — lower, 0.967 ± 0.035
- GGTCCGCATA — higher, 2.82 ± 1.2
- GGTCCGTCGT — within error, 1.02 ± 0.038
- GGTCCGTTTC — within error, 1.01 ± 0.056
- GGTCCTGGAC — within error, 1.02 ± 0.019
- GGTCCTGGTT — lower, 0.9859 ± 0.0021
- GGTCGAGGTT — within error, 0.991 ± 0.035
- GGTCGCAGGG — within error, 1 ± 0.026
- GGTCGCGGGT — within error, 1 ± 0.038
- GGTCGGCATA — within error, 1.01 ± 0.042
- GGTCGGGGAT — within error, 1.01 ± 0.022
- GGTCGGTAGA — within error, 0.998 ± 0.015
- GGTCGTTGAA — within error, 1.02 ± 0.057
- GGTCTACAGA — within error, 1.02 ± 0.011
- GGTCTACTAG — within error, 0.999 ± 0.04
- GGTCTAGGGT — within error, 1.03 ± 0.025
- GGTCTATTTT — within error, 0.986 ± 0.023
- GGTCTGGTTT — lower, 0.956 ± 0.013
- GGTCTTAGAA — within error, 1.033 ± 0.0062
- GGTCTTGCGA — lower, 0.9755 ± 0.0078
- GGTCTTTAGG — lower, 0.99184 ± 0.00074
- GGTCTTTGAA — lower, 0.979 ± 0.023
- GGTGAAAAGC — within error, 1.02 ± 0.059
- GGTGAAGGTG — higher, 1.355 ± 0.0092
- GGTGAAGTCA — within error, 1 ± 0.024
- GGTGAAGTGT — lower, 1 ± 0.0051
- GGTGAATGGG — within error, 1.01 ± 0.032
- GGTGACGGGC — within error, 0.978 ± 0.045
- GGTGAGATTA — lower, 0.9804 ± 0.0073
- GGTGAGGGCA — lower, 0.99 ± 0.015
- GGTGAGGGTG — within error, 1.1 ± 0.013
- GGTGATACAG — lower, 1.003 ± 0.0051
- GGTGATAGGA — within error, 0.98 ± 0.034
- GGTGATATGT — within error, 0.997 ± 0.018
- GGTGATCCTG — lower, 0.977 ± 0.028
- GGTGATCTTT — within error, 0.965 ± 0.044
- GGTGCAGGGG — within error, 1.11 ± 0.023
- GGTGCAGGTG — higher, 1.74 ± 0.59
- GGTGCATGGC — within error, 1.04 ± 0.04
- GGTGCCGGGG — within error, 1.02 ± 0.042
- GGTGCCGGTT — within error, 0.997 ± 0.054
- GGTGCCTGTT — within error, 1 ± 0.011
- GGTGCGCCTT — lower, 0.958 ± 0.013
- GGTGCGGGTG — within error, 1.03 ± 0.051
- GGTGCTAAGG — within error, 1.02 ± 0.021
- GGTGCTGCTA — lower, 0.984 ± 0.019
- GGTGCTTTGG — within error, 0.993 ± 0.046
- GGTGCTTTTT — within error, 0.987 ± 0.023
- GGTGGAAGGA — within error, 1.02 ± 0.029
- GGTGGCAAAT — within error, 1.01 ± 0.013
- GGTGGCCGGT — within error, 0.987 ± 0.021
- GGTGGCGGAA — within error, 0.996 ± 0.037
- GGTGGCGGGG — lower, 0.987 ± 0.019
- GGTGGCTTGC — within error, 1.014 ± 0.0032
- GGTGGGACGG — within error, 0.991 ± 0.039
- GGTGGGAGGC — within error, 0.999 ± 0.059
- GGTGGGATGC — within error, 1.02 ± 0.076
- GGTGGGGAGC — within error, 1 ± 0.021
- GGTGGGGTGC — within error, 1.01 ± 0.046
- GGTGGGTGTC — lower, 0.974 ± 0.016
- GGTGGGTTTG — within error, 1.03 ± 0.024
- GGTGGTCAGC — within error, 1.012 ± 0.0049
- GGTGGTCCCT — within error, 0.99 ± 0.04
- GGTGGTGGCC — within error, 1.01 ± 0.023
- GGTGGTTATC — within error, 1.01 ± 0.021
- GGTGGTTATT — within error, 0.996 ± 0.014
- GGTGGTTTGG — within error, 1.023 ± 0.0045
- GGTGGTTTTG — within error, 0.985 ± 0.037
- GGTGTAATGG — within error, 1.04 ± 0.04
- GGTGTAGAGG — within error, 1.012 ± 0.0022
- GGTGTAGCTA — within error, 0.981 ± 0.061
- GGTGTAGCTT — within error, 1.014 ± 0.0083
- GGTGTAGGT — within error, 0.986 ± 0.022
- GGTGTATGGT — lower, 0.985 ± 0.018
- GGTGTGGCTC — within error, 1 ± 0.044
- GGTGTGTGGG — within error, 1.01 ± 0.033
- GGTGTTAAGA — within error, 1.01 ± 0.0043
- GGTGTTAGGC — within error, 1.01 ± 0.032
- GGTGTTATGC — within error, 1.01 ± 0.015
- GGTGTTCATG — lower, 0.974 ± 0.024
- GGTGTTCTGT — lower, 0.9665 ± 0.0089
- GGTGTTGCAA — within error, 1.02 ± 0.016
- GGTGTTGTGG — lower, 0.9911 ± 0.0093
- GGTGTTGTTC — within error, 1.01 ± 0.014
- GGTGTTTAAT — lower, 0.979 ± 0.016
- GGTGTTTGGA — lower, 0.986 ± 0.0099
- GGTGTTTGTA — within error, 1.005 ± 0.0094
- GGTGTTTTAT — within error, 1.02 ± 0.015
- GGTGTTTTCA — within error, 0.988 ± 0.026
- GGTGTTTTG — lower, 0.9847 ± 0.007
- GGTTAAAAGG — within error, 1 ± 0.032
- GGTTAAACTT — within error, 1.02 ± 0.012
- GGTTAAATTA — within error, 1.01 ± 0.013
- GGTTAACGTC — within error, 1.03 ± 0.15
- GGTTAAGCCG — within error, 0.996 ± 0.017
- GGTTAAGTCT — lower, 0.946 ± 0.053
- GGTTAATCGT — lower, 0.98228 ± 0.00062
- GGTTACGTAG — within error, 1.045 ± 0.0078
- GGTTACTGTT — within error, 1.08 ± 0.096
